Assay in all cases: SEC-MALS
Background: In gel filtration, larger molecules generally elute earlier.

In assay [1] the target is BcMCM C200 truncation (Bacillus cereus).
Assay [2] has as its target BcMCM N399 truncation (Bacillus cereus).
In assay [3] the target is full-length Bacillus cereus MCM (BcMCM) (Bacillus cereus).

Values joined by “and” are separate entries in the source; they are usually repeats but may differ in a detail not shown here. Equal values may be shown once.

On to “BcMCM C200 truncation (domain or fragment)”, for which the stoichiometry N (usually the number of molecules, sites or subunits per partner or assembly) in assay [1] is 2 and 3 and 4.

For the substance “BcMCM N399 truncation (domain or fragment)”, the stoichiometry N in assay [2] was 2 and 4.

“full-length Bacillus cereus MCM (BcMCM) (enzyme)” registered a stoichiometry N in assay [3] of 2.

(Values after PMC2715239.)
